For 4 molecules, Kd results are on record in patent US20260374834 (published 2026).

Numbering of substitutions follows the chain as printed.

First the molecules themselves.
T1: hIL-18Ra ECD-Fc (human, UniProt Q13478)
T1 chain: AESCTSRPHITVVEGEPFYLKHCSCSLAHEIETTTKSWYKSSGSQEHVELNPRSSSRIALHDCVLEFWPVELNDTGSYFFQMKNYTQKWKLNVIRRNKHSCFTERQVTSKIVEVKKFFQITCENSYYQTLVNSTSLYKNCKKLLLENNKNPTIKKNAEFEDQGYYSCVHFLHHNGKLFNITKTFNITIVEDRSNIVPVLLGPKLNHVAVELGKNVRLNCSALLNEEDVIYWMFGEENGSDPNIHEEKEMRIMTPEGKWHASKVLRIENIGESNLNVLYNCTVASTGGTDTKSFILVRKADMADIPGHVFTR

B1: WM2 (designed binder)
chain: YFPKLRSKLSVIRNLNDQVLFIDQGNRPLFEDMTDSDCRDNAPRTIFIISMYKDSQPRGMAVTISVKCEKISTLSCENKIISFKEMNPPDNIKDTESDIIFFQRSVPGHDNKMQFESSSYEGYFLACEKERDLFKLILKKEDELGDRSIMFTVQNED
B2: WM8 (designed binder)
chain: B1 chain with N91S, E96K
B3: M6 (designed binder)
chain: B1 chain with D54W, Q56T, N91V, E96K, R104T
B4: M36 (designed binder)
chain: B1 chain with R6S, D54A, Q56D, P57Q, N91G, E96K

This test deals with T1, hIL-18Ra ECD-Fc. Kind of test: BLI. A general note: BLI is a label-free optical method that tracks binding on a fibre tip over time.
Consider B1, for which the Kd (commonly the free concentration of one partner at which half of the binding sites on the other are occupied at equilibrium, for simple one-to-one binding) is greater than 1000 nM.

B2: the Kd is greater than 1000 nM.

In turn, B3 gave a Kd greater than 1000 nM.

With B4, the Kd was greater than 1000 nM.
